The source of these data is patent publication US5616475.

The target in the data set is T1, TRC-1 (p21 SNF-1/JunB heteromultimer), SLB-I nuclear extract (Homo sapiens) (UniProt Q9NR55+P17275).
T1 sequence 1: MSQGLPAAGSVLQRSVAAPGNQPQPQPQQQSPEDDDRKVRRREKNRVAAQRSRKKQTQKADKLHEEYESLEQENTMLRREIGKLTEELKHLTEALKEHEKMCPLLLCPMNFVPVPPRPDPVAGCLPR
T1 sequence 2: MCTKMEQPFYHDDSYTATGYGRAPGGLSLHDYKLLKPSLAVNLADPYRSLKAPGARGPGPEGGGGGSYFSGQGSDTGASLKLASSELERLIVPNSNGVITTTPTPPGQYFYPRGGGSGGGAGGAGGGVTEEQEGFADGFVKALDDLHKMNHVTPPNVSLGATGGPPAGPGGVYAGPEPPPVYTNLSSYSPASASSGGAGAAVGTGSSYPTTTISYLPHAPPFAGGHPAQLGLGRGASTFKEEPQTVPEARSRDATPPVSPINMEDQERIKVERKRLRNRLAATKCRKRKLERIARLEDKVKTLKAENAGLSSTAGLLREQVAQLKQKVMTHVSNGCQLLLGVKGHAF
Nature of the data set: competition. As to conditions: EMSA, site2 probe. (In EMSA bound probe runs differently from free probe, usually more slowly.)

With HTLV-1 LTR 21-bp repeat site1 (s1), the binding signal (fold excess for 55% competition) is 100.
For the setting “on ice”, HTLV-1 LTR 21-bp repeat site2 (s2) came in with a binding signal (% competition at 12.5-fold excess) of 55.
Consider HTLV-1 LTR 21-bp repeat site3 (s3), for which the binding signal (fold excess for 55% competition) (nearly 50-fold) amounted to 50.
